The supplement of paper PMC7877785
± gives the uncertainty stated by the source.

Experiment: self-splicing fitness, log relative to wild type (ln ratio); higher = more splicing; Tetrahymena group I intron in knt gene, E. coli kanamycin selection, DiMSum; sequences stand for … in CUCUCU…GGAGGGAAAAGUUAUCAGGCAUGCACCUGGUAGCUAGUCUUUAAACCAAUAGAUUGCAUCGGUUUAAAAGGCAAGACCGUCAAAUUGCGGGAAAGGGGUCAACAGCCGUUCAGUACCAAGUCUCAGGGGAAACUUUGAGAUGGCCUUGCAAAGGGUAUGGUAAUAAGCUGACGGACAUGGUCCUAACCACGCAGCCAAGUCCUAAGUCAACAGAUCUUCUGUUGAUAUGGAUGCAGUUCACAGACUAAAUGUCGGUCGGGGAAGAUGUAUUCUUCUCAUAAGAUAUAGUCGGACCUCUCCUUAAUGGGAGCUAGCGGAUGAAGUGAUGCAACACUGGAGCCGCUGGGAACUAAUUUGUAUGCGAAAGUAUAUUGAUUAGUUUUGGAGUACUCGUGGUCG
In short: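 DiMSum derived fitness as the error-weighted combination of fold changes across replicates, kanamycin versus no kanamycin, normalised to wild type. E. coli BL21(DE3) held the library, which randomised all eight P1ex-region intron nucleotides within the knt kanamycin-resistance gene on pET-22b(+). Six replicate transformations grew overnight at 37°C or 30°C on LB agar with or without 25 μg/mL kanamycin, also containing 100 μg/mL carbenicillin, 50 μM IPTG and 0.2% rhamnose, and pooled colonies were amplicon-sequenced on an Illumina HiSeq 2500.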

| Sequence | self-splicing fitness (ln) (30 °C) | self-splicing fitness (ln) (37 °C) |
| --- | --- | --- |
| CAAGAGCAAUAUUACGGGCG | -0.815 ± 0.1 | -0.188 ± 0.12 |
| CAAGAGCAAUAUUACGGGGA | -3.21 ± 0.32 | -2.67 ± 0.28 |
| CAAGAGCAAUAUUACGGUCA | -2.4 ± 0.19 | -2.45 ± 0.23 |
| CAAGAGCAAUAUUACGUACG | -0.91 ± 0.084 | 0.0935 ± 0.11 |
| CAAGAGCAAUAUUACGUAGA | -3.55 ± 0.17 | -2.76 ± 0.24 |
| CAAGAGCAAUAUUACGUCCG | -1.66 ± 0.087 | -0.696 ± 0.13 |
| CAAGAGCAAUAUUACGUGAU | -3.6 ± 0.21 | -2.34 ± 0.22 |
| CAAGAGCAAUAUUACGUGGA | -3.87 ± 0.28 | -2.43 ± 0.15 |
| CAAGAGCAAUAUUACGUUAC | -2.55 ± 0.12 | -2.71 ± 0.23 |
| CAAUAGCAAUAUUACGAAGA | -3.96 ± 0.39 | -1.31 ± 0.2 |
| CAAUAGCAAUAUUACGACGA | -2.18 ± 0.22 | -1.24 ± 0.14 |
| CAAUAGCAAUAUUACGAGUA | -2.31 ± 0.21 | -2.38 ± 0.2 |
| CAAUAGCAAUAUUACGAGUU | -3.64 ± 0.2 | -2.19 ± 0.2 |
| CAAUAGCAAUAUUACGAUAG | -0.926 ± 0.069 | -0.00227 ± 0.1 |
| CAAUAGCAAUAUUACGAUCC | -2.68 ± 0.46 | – |
| CAAUAGCAAUAUUACGCCUG | -0.752 ± 0.075 | 0.366 ± 0.088 |
| CAAUAGCAAUAUUACGCGGG | -3.11 ± 0.16 | -1.75 ± 0.12 |
| CAAUAGCAAUAUUACGCGUC | -4.09 ± 0.25 | -3 ± 0.22 |
| CAAUAGCAAUAUUACGCUUU | -4.34 ± 0.27 | -2.2 ± 0.19 |
| CAAUAGCAAUAUUACGGUCC | -3.21 ± 0.38 | -2.34 ± 0.39 |
| CAAUAGCAAUAUUACGGUUA | -1.4 ± 0.12 | -1.24 ± 0.1 |

| Sequence | self-splicing fitness (ln) (30 °C) | self-splicing fitness (ln) (37 °C) |
| --- | --- | --- |
| CAAUAGCAAUAUUACGUAUU | -3.25 ± 0.21 | -2.65 ± 0.18 |
| CAAUAGCAAUAUUACGUCAU | -3.6 ± 0.14 | -2.88 ± 0.17 |
| CAAUAGCAAUAUUACGUCGU | -3.95 ± 0.23 | -2.49 ± 0.19 |
| CAAUAGCAAUAUUACGUGGU | -3.82 ± 0.17 | -2.53 ± 0.18 |
| CACAAGCAAUAUUACGAACA | -2.61 ± 0.18 | -1.72 ± 0.12 |
| CACAAGCAAUAUUACGAGCU | -3.48 ± 0.24 | -3.29 ± 0.3 |
| CACAAGCAAUAUUACGAGGG | -2.28 ± 0.12 | -2.48 ± 0.14 |
| CACAAGCAAUAUUACGAUUU | -4.17 ± 0.18 | -2.56 ± 0.15 |
| CACAAGCAAUAUUACGCACU | -2.4 ± 0.13 | -1.33 ± 0.11 |
| CACAAGCAAUAUUACGCAGG | -2.65 ± 0.15 | -1.01 ± 0.13 |
| CACAAGCAAUAUUACGCAGU | -3.4 ± 0.2 | -2.37 ± 0.16 |
| CACAAGCAAUAUUACGCAUC | -3.19 ± 0.18 | -2.29 ± 0.18 |
| CACAAGCAAUAUUACGCAUU | -2.9 ± 0.096 | -2.5 ± 0.14 |
| CACAAGCAAUAUUACGCGCG | -0.772 ± 0.066 | -0.607 ± 0.071 |
| CACAAGCAAUAUUACGCUAA | -2.58 ± 0.18 | -1.82 ± 0.16 |
| CACAAGCAAUAUUACGCUCC | -1.93 ± 0.16 | -1.66 ± 0.22 |
| CACAAGCAAUAUUACGGGAA | -3.21 ± 0.16 | -2.79 ± 0.17 |
| CACAAGCAAUAUUACGUAAG | -0.372 ± 0.047 | 0.157 ± 0.065 |
| CACAAGCAAUAUUACGUAGA | -1.83 ± 0.081 | -1.73 ± 0.11 |
| CACAAGCAAUAUUACGUGGG | -3.94 ± 0.16 | -2.42 ± 0.12 |
| CACAAGCAAUAUUACGUGGU | -4.1 ± 0.17 | -2.66 ± 0.19 |
